For this assay, the target named is T1, vascular endothelial growth factor receptor 2 (UniProt P35968 20-764).
T1 construct: VEGFR2 (vascular endothelial growth factor receptor 2); probably a bought recombinant protein (surmise); also called VEGFR2; VEGFR-2
The assay is described as follows: SPR; Biacore S200; ASP-3 immobilised on a CM5 chip (NHS/EDC activation); VEGFR2 at 100, 50, 25, 12.5, 6.25 and 3.125 nM flowed over for 180 s at 10 μL/min; running buffer HBS-EP+; reference channel subtracted. Particulars: both partners purified.

As a reminder, the Kd is a measure of binding affinity in units of concentration. Read a high Kd as weaker binding.

T1 sequence (P35968 20-764): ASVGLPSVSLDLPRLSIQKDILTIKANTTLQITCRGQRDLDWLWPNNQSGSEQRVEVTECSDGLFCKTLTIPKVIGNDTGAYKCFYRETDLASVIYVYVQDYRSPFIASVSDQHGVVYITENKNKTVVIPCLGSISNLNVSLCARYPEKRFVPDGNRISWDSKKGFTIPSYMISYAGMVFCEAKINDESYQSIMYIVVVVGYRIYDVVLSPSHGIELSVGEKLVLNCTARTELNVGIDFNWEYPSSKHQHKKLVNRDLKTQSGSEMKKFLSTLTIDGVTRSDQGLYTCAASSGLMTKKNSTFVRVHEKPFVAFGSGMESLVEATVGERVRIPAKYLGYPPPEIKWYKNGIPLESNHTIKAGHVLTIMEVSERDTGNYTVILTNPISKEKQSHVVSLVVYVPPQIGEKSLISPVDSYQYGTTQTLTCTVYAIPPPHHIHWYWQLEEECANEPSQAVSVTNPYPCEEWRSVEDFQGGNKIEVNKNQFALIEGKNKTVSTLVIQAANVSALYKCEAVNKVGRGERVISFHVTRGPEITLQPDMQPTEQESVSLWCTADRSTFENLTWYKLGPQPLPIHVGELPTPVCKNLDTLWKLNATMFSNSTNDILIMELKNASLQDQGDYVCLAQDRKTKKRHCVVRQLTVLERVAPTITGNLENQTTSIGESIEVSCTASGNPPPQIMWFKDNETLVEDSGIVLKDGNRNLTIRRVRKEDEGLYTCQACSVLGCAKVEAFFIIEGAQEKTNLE

B1: ASP-3 (natural protein, Arca subcrenata)
chain: MDYLTSKWKLWFHSLDVNHDGKISFEDVEESRNKFTDLHKLLGDKASGVKVDMESWWNTYIFKASGGGELSEEMFIKSNTDRYNKDKAAFLNDIQKCFNMIFDVIDTNKDRSIELNEFIYAFKAFGHENEGLVTKAFELLEPKEGLVPLRDIVNAWVSFVTSTDQSKPDAIKQAFDAGF
notes: ASP-3, Arca subcrenata Lischke, 179 amino acids, 20.6 kDa; Native protein isolated from the animal; also called Arca subcrenata protein; cds.c115914_g1_i1
B1: binding was characterised by a dissociation constant (Kd) of 39.9 nM.

The values are drawn from PMC6780846, “Identification and Characterization of a Novel Protein ASP-3 Purified from Arca subcrenata and Its Antitumor Mechanism” (Marine Drugs, 2019).
